Entries after “also recorded” stand apart in the source; their conditions may differ.
How the values were obtained:
[1] = molecular target: T1, membrane bound ER-α36 protein in MCF-7 cells (Homo sapiens, UniProt P03372); assay: Immunofluorescence analysis of MCF-7 mammosphere; type: cell-based
T1 construct: endogenous in cells; host or cells: MCF7
T1 sequence (P03372 1-310 isoform P03372-4): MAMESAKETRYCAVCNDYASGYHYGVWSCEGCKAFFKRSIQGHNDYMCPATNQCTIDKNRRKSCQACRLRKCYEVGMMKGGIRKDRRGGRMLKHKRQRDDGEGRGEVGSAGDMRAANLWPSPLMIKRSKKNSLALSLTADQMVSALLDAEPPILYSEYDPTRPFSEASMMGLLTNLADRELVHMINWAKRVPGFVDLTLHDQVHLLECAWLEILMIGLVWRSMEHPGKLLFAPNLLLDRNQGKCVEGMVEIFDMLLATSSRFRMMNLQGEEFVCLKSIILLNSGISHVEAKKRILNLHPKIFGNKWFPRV
Procedure: The ability of SNGmB1 to detect membrane bound ER-α36 protein in MCF-7 cells was assessed using immunostaining. MCF-7 mammosphere was formed and immunostaining was performed by steps as follows:
1. MCF-7 cells were cultured in DMEM without phenol red for 2 days and stained with 7-aminoactinomycin D (7-AAD) followed by FACS sorting. The sorted cells were cultured in DMEM/F12 without phenol red medium (Gibo) with B27 (Invitrogen), EGF (BD Biosciences) and bFGF (BD Biosciences) for 6 days and the MCF-7 mammosphere was formed. 2. MCF-7 mammosphere was centrifuged at 1000 rpm for 4 min, and the supernatant was removed. 3. The mammosphere was washed with 500 μl PBS and was transferred to a 1.5 ml EP tube before centrifugation at 1000 rpm for 4 min, and the supernatant was discarded. 4. The precipitate was fixed with 500 μl paraformaldehyde (4%) for 20 min (or overnight), and was centrifuged at 1000 rpm for 4 min to move the supernatant. 5. The precipitate was washed with 500 μl PBS and centrifuged at 1000 rpm for 4 min, and the supernatant was discarded, wash three times using PBS. 6. The supernatant was removed and the precipitate was incubated with 50 μl goat serum blocking solution at 37° C. for 30 min; after centrifugation at 1000 rpm for 4 min, the supernatant was discarded. 7. […] The mammospheres was transferred to small observation dish, and stored at 4° C. to be detected.

[2] = molecular target: T2, ER-α36 protein in human tumor tissues (Homo sapiens, UniProt P03372); assay: Immunohistochemistry (IHC) of human tissue samples; settings: paraffin tissue of breast cancer patients
T2 construct: from tissue; host or cells: paraffin sections of breast cancer patients' tissue
T2 sequence (P03372 1-310 isoform P03372-4): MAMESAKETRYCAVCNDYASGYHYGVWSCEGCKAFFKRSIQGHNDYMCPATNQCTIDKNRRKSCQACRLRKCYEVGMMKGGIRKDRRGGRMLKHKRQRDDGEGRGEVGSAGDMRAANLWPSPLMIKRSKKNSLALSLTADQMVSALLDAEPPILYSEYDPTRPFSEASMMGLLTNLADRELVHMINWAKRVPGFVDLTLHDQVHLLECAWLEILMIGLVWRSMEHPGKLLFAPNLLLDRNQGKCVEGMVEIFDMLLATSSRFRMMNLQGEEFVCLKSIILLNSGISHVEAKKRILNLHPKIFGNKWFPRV
Procedure: Immunohistochemistry (IHC) assay was used to evaluate the ability of utilizing a specific antibody like SNGmB1 to better detect the presence of ER-α36 in human tissue samples. 4 μm thick paraffin tissue blocks of breast cancer patients were de-paraffinized by immersing in the xylene for twenty minutes twice, followed by rehydrating sequentially in 99%, 90%, 85%, 75%, 50% ethanol for 5 minutes each. The tissue sections were then washed three times with PBS. Antigen retrieval was then performed by heating in 95° C. citrate (pH 6.0) buffer for 15 minutes in microwave. Once cooled to room temperature, the sections were then washed with PBS three times, and incubated with 3% hydrogen peroxide for 20 minutes at room temperature, followed by washing with PBS. […] Upon washing with PBS five times, pre-diluted secondary antibody (ZSGB-Bio, Cat# PV-6000) was added and incubated for 20 minutes at room temperature. The sections were then washed with PBS and incubated with DAB solution for 2-5 minutes, followed by rinsing in distilled water for 5-10 minutes. The sections were then counter-stained in hematoxylin (ZSGB-BIO, Cat# ZLI-9609), followed by rinsing sequentially in 50%, 75%, 85%, 90% and 99% A ethanol to dehydrate. The sections were then cleared in xylene and sealed with neutral balsam before evaluated with microscope.

[3] = tested on: BCAP37 breast cancer xenograft; assay: BCAP37 breast cancer xenograft model; type: in vivo; settings: NOD-SCID mice, 1.25, 5 and 20 mg/kg SNGmB1, 3 mg/kg Herceptin, 17 days
Procedure: The ability of anti-ER-α36 antibody in inhibiting human tumor cell growth in Xenograft model was assessed using BCAP37 breast cancer model. […] The cells were implanted into NOD-SCID mice. […] After 17 days of treatment, the tumors were excised, and both tumor weight and volume were measured.

ER-α36 = molecular target: T3, ER-α36 (Homo sapiens, UniProt P03372); assay: ELISA binding specificity of SNGmB1; set-up: made in house; host or cells: E. coli BL21 (DE3); settings: plate coated at 1 μg/ml, antibody 0.004-10 μg/ml
T3 sequence (P03372 284-310 isoform P03372-4): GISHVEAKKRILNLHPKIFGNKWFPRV
Procedure: The binding specificity of SNGmB1 was assessed using ELISA assay. Five different proteins were used to coat the assay plate at 1 μg/ml. After extensive blocking, the SNGmB1 antibody of different concentrations (10, 2, 0.4, 0.08 and 0.016, 0.004 μg/ml) was added to the assay plate and incubated for 1.5 hours, followed by detection of complex formation using HRP (horse radish peroxidase) labeled anti-mouse IgG Fc (Invitrogen). An example of the data was shown below in FIG. 3. […] The key epitope residues in ER-α36 F domain for SNGmB1 binding have been mapped using both PepScan and Alanine Scan (see Example 5).

B1: SNGmB1: mouse monoclonal anti-ER-α36 antibody (mIgG2b), light chain SEQ ID NO: 16, heavy chain SEQ ID NO: 18 (antibody, listed as Mus musculus)
heavy: QAYLQQSGAELVRPGASVKMSCKASGYTFTSHNMHWIKQTPRQGLEWIGAIHPVNGDTAYNQKFKGKATLTVDKSSSTAYLQLSSLTSEESAVYFCAREGYGSVDYWGQGTTLTVSSAKTTPPSVYPLAPGCGDTTGSSVTLGCLVKGYFPESVTVTWNSGSLSSSVHTFPALLQSGLYTMSSSVTVPSSTWPSQTVTCSVAHPASSTTVDKKLEPSGPISTINPCPPCKECHKCPAPNLEGGPSVFIFPPNIKDVLMISLTPKVTCVVVDVSEDDPDVQISWFVNNVEVHTAQTQTHREDYNSTIRVVSTLPIQHQDWMSGKEFKCKVNNKDLPSPIERTISKIKGLVRAPQVYILPPPAEQLSRKDVSLTCLVVGFNPGDISVEWTSNGHTEENYKDTAPVLDSDGSYFIYSKLNMKTSKWEKTDSFSCNVRHEGLKNYYLKKTISRSPGK
light: ETTVTQSPASLSMTIGEKVTIRCITSTDIDDDMNWYRKKPGQPPKLLISEGNTLRPGVPSRFSSSGYGTDFVFTIENMLSEDVADYYCLQSDNLPLTFGAGTKLELKRADAAPTVSIFPPSSEQLTSGGASVVCFLNNFYPKDINVKWKIDGSERQNGVLNSWTDQDSKDSTYSMSSTLTLTKDEYERHNSYTCEATHKTSTSPIVKSFNRNEC
- immunostaining of membrane bound ER-α36 on MCF-7 mammospheres [1]: stained the MCF-7 mammospheres in a dose-dependent manner; also recorded: can detect membrane bound ER-α36 on MCF7
- detection of ER-α36 protein expression in human tumor tissues [2]: detected both membrane bound and cytoplasmic expression
- inhibition of tumor growth [3]: inhibit tumor growth in a dose-dependent manner; also recorded: inhibited tumor cell growth in a does-dependent manner
- binding to 27-amino acid peptide derived from the F domain of ER-α36 ("peptide") (ER-α36): bind to

From patent US10233249B2, “Antibodies and methods for treating estrogen receptor-associated diseases” (BEIJING SHENOGEN PHARMA GROUP LTD., priority 2013, dated 2019)
